Data from patent US20240117030A1 (Pfizer, published 2024).
Like-named read-outs stand apart in the source and are kept apart here.

T1: recombinant human IL-4 (human, UniProt P05112 25-153)
T1 sequence (looked up): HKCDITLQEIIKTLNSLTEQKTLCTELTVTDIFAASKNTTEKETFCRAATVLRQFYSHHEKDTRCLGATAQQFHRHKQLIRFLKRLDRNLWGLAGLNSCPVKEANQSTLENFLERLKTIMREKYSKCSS

T2: recombinant human IL-33 (human, UniProt O95760 112-270, limits assumed)
T2 sequence (looked up): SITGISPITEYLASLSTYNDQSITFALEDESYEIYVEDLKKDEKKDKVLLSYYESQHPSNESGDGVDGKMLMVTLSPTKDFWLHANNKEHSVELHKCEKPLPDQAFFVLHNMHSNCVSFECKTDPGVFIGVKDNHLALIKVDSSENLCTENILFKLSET

T3: recombinant cynomolgus monkey IL-4 (cynomolgus monkey, UniProt P79339 25-153)
T3 sequence (looked up): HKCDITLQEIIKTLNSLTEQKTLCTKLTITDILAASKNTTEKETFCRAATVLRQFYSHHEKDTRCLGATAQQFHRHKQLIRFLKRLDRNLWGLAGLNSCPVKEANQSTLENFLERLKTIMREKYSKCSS

T4: IL-33 mm2 (human, UniProt O95760 112-270, limits assumed)
T4 sequence (looked up): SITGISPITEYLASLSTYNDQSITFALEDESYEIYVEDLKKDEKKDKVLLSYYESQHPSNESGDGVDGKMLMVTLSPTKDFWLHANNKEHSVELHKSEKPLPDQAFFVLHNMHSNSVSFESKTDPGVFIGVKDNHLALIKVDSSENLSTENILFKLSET

T5: human IL-33 (human, UniProt O95760 112-270, limits assumed)
T5 construct: Limits stated for the R&D protein; also called human IL-33 WT; reduced human IL-33
T5 sequence (looked up): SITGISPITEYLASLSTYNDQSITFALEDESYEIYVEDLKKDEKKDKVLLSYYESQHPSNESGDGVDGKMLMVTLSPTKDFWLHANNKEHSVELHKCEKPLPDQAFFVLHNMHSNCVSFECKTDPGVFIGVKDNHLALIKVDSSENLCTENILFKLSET


Key:
recombinant human IL-4 [1] = target: T1, recombinant human IL-4; test: cell-based or functional assay
recombinant human IL-33 [2] = target: T2, recombinant human IL-33; test: cell-based or functional assay
recombinant human IL-13 [3] = target: T6, recombinant human IL-13 (human, UniProt P35225 35-146); test: cell-based or functional assay
recombinant human IL-4 [4] = target: T1, recombinant human IL-4; test: cell-based or functional assay; remark: listed apart in the source
[5] = target: T3, recombinant cynomolgus monkey IL-4; test: cell-based or functional assay
recombinant human IL-13 [6] = target: T6, recombinant human IL-13; test: cell-based or functional assay; remark: listed apart in the source
recombinant human IL-13 [7] = target: T6, recombinant human IL-13; test: cell-based or functional assay; remark: listed apart in the source
[8] = target: T7, recombinant cynomolgus monkey IL-13 (cynomolgus monkey, UniProt Q0PW92 19-132); test: KinExA, fixed antigen format
T7 construct: also called Cyno IL-13
Experimental: (§1) Samples were prepared in PBS containing 0.1% sodium azide and 1.0 mg/ml BSA. The fixed antigen assay method was used to determine binding affinity. […] Data analysis was performed with KinExA Pro software version 4.3.11 (Sapidyne). […] The ‘drift correction’ fitting option was used when responses varied between replicate injections. Two curves were obtained in independent experiments and analyzed using the ‘n-curve analysis’ tool to obtain global best fit values for the KD and active concentration of IL-13 cytokine. The software reports each best fit value along with a 95% confidence interval.

recombinant human IL-13 [9] = target: T6, recombinant human IL-13; test: KinExA, fixed antigen format
Experimental: as §1

recombinant human IL-4 [10] = target: T1, recombinant human IL-4; test: cell-based or functional assay; remark: listed apart in the source
recombinant human IL-4 [11] = target: T1, recombinant human IL-4; test: KinExA, fixed antigen format
Experimental: (§2) Samples were prepared in PBS containing 0.1% sodium azide and 1.0 mg/ml BSA. The fixed antigen assay method was used to determine binding affinity. […] Each trispecific and IL-4 cytokine were equilibrated for at least 72 hours at room temperature, then passed through a flow cell containing Polymethylmethacrylate (PMMA) beads coated with anti-hIL-4 Ab-0002 (Pfizer) that contains the same IL-4 binding domain as the trispecifics. […] Data analysis was performed with KinExA Pro software version 4.3.11 (Sapidyne). […] The ‘drift correction’ fitting option was used when responses varied between replicate injections. Two curves were obtained in independent experiments and analyzed using the ‘n-curve analysis’ tool to obtain global best fit values for the KD and active concentration of IL-4 cytokine. The software reports each best fit value along with a 95% confidence interval.

[12] = target: T3, recombinant cynomolgus monkey IL-4; test: KinExA, fixed antigen format
Experimental: as §2

recombinant human IL-4 [13] = target: T1, recombinant human IL-4; test: cell-based or functional assay; remark: listed apart in the source
recombinant human IL-33 [14] = target: T2, recombinant human IL-33; test: cell-based or functional assay; remark: listed apart in the source
IL-33 mm2 = target: T4, IL-33 mm2; test: cell-based or functional assay
[15] = target: T7, recombinant cynomolgus monkey IL-13; test: cell-based or functional assay
recombinant human IL-13 [16] = target: T6, recombinant human IL-13; test: cell-based or functional assay; remark: listed apart in the source
human IL-33 = target: T5, human IL-33; test: KinExA solution affinity, fixed antigen format
Experimental: Samples were prepared in PBS containing 0.1% sodium azide and 1.0 mg/mL bovine serum albumin (BSA). […] The fixed active binding concentrations (ABC) of biotinylated human IL 33 used were 10 pM and 100 pM. Biotinylated human IL-33 wild-type (WT) was reduced with 3 mM Dithiothreitol (DTT) for 2 hours at room temperature before use. The samples were allowed to equilibrate for at least 72 hours at room temperature before passing them through a flow cell that contained the test article anti-IL-33 antibody being evaluated adsorbed to polymethylmethacrylate (PMMA) beads (Sapidyne). […] Data analysis was performed with KinExA Pro software version 4.3.11 (Sapidyne). […] The ‘drift correction’ fitting option was used when responses varied between replicate injections. Two curves were obtained in independent experiments and analyzed using the ‘n-curve analysis’ tool to obtain global best fit values for the KD and active concentration of IL-33 cytokine. The software reports each best fit value along with a 95% confidence interval.

T6 sequence (P35225 35-146 limits assumed): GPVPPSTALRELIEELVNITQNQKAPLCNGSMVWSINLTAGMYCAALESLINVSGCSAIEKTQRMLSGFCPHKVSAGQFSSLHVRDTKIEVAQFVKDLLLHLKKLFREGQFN
T7 sequence (Q0PW92 entry or part of it limits assumed): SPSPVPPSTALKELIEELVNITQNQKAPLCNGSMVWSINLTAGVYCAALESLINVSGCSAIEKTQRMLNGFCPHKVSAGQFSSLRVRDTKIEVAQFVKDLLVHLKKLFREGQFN

| Binder | IC50 (median), CD23 expression, Human Whole Blood (recombinant human IL-4 [4]) [pM] | IC50 (median), CD23 expression, Peripheral Blood Monocytes (recombinant human IL-4 [4]) [pM] | IC50 (median), CD23 expression, Human Whole Blood [5] [pM] | IC50 (median), CD23 expression, Peripheral Blood Monocytes [5] [pM] | IC50 (median), IL-13 induced CD23 expression on human monocytes (recombinant human IL-13 [6]) [pM] | IC50 (median), IL-13 induced CD23 expression on human monocytes (recombinant human IL-13 [7]) [pM] | Kd [8] [pM] | Kd (recombinant human IL-13 [9]) [pM] | IC50 (median), IL-4 induced CD23 expression on human monocytes (recombinant human IL-4 [10]) [pM] | Kd (recombinant human IL-4 [11]) [pM] | Kd [12] [pM] | IC50 (median), IL-4 induced CD23 expression on human monocytes (recombinant human IL-4 [13]) [pM] | IC50 (median), CD23 expression, Human Whole Blood [15] [pM] | IC50 (median), CD23 expression, Peripheral Blood Monocytes [15] [pM] | IC50 (median), CD23 expression, Human Whole Blood (recombinant human IL-13 [16]) [pM] | IC50 (median), CD23 expression, Peripheral Blood Monocytes (recombinant human IL-13 [16]) [pM] | also measured |
| --- | --- | --- | --- | --- | --- | --- | --- | --- | --- | --- | --- | --- | --- | --- | --- | --- | --- |
| IL13433-1258 (other, Trispecific Tri-Fab-Fc, dual cell, EE/RR, LS; Chains in order: SFab HC(3), DFab LC(1)-HC(2), SFab LC(3), DFab LC(2), modified Fd(1)) heavy: EVQLVESGGGLVQPGGSLRLSCAASGFTFSSYWMYWVRQAPGKGLEWVAAITPNAGEDYYPESVKGRFTISRDNAKNSLYLQMNSLRAEDTAVYYCARGQYYYTKYSLGYWGQGTLVTVSSASTKGPSVFPLAPSSKSTSGGTAALGCLVKDYFPEPVTVSWNSGALTSGVHTFPAVLQSSGLYSLSSVVTVPSSSLGTQTYICNVNHKPSNTKVDKKVEPKSCRKTHTCPPCPAPEAAGAPSVFLFPPKPKDTLMISRTPEVTCVVVDVSHEDPEVKFNWYVDGVEVHNAKTKPREEQYNSTYRVVSVLTVLHQDWLNGKEYKCKVSNKALPAPIEKTISKAKGQPREPQVYTLPPSREEMTKNQVSLTCLVKGFYPSDIAVEWESNGQPENNYKTTPPVLDSDGSFFLYSRLTVDKSRWQQGNVFSCSVLHEALHSHYTQKSLSLSPGK chain 1: DIQMTQSPSSLSASVGDRVTITCKASESVDHFGWSLVHWYQQKPGKAPKLLIYRASNLESGVPSRFSGSGSGTDFTLTISSLQPEDFATYYCQQSNEDPWTFGGGTKVEIKRTVAAPSVFIFPPSDEQLKSGTASVVCLLNNFYPREAKVQWKVDNALQSGNSQESVTEQDSKDSTYSLSSTLTLSKADYEKHKVYACEVTHQGLSSPVTKSFNRGECGGGGSEVTLRESGPALVKPTQTLTLTCTFSGFSLSNFGEGLSWIRQPPGKGLEWLAHIYWDDDKRYNPSLKSRLTISKDTSRNQVVLTMTNMDPVDTATYYCARRETVFYWYFDVWGQGTTVTVSSASTKGPSVFPLAPSSKSTSGGTAALGCLVKDYFPEPVTVSWNSGALTSGVHTFPAVLQSSGLYSLSSVVTVPSSSLGTQTYICNVNHKPSNTKVDKKVEPKSCEKTHTCPPCPAPEAAGAPSVFLFPPKPKDTLMISRTPEVTCVVVDVSHEDPEVKFNWYVDGVEVHNAKTKPREEQYNSTYRVVSVLTVLHQDWLNGKEYKCKVSNKALPAPIEKTISKAKGQPREPQVYTLPPSREEMTKNQVSLTCEVKGFYPSDIAVEWESNGQPENNYKTTPPVLDSDGSFFLYSKLTVDKSRWQQGNVFSCSVLHEALHSHYTQKSLSLSPGK light 1: DIQMTQSPSSLSASVGDRVTITCRASQPIHNHLDWYQQKPGKAPKLLIYFGKNLQEGVPSRFSGSGSGTDFTLTISSLQPEDFATYYCFQYKKGWSFGGGTKVEIKRTVAAPSVFIFPPSDEQLKSGTASVVCLLNNFYPREAKVQWKVDNALQSGNSQESVTEQDSKDSTYSLSSTLTLSKADYEKHKVYACEVTHQGLSSPVTKSFNRGEC light 2: DIQMTQSPSSLSASVGDRVTITCRASQSVDEEGDSYMNWYQQKPGKAPKLLIYAASNLESGVPSRFSGSGSGTDFTLTISSLQPEDFATYYCQQSNKDPPTFGGGTKVEIKRTVAAPSVFIFPPSDEQLKSGTASVVCLLNNFYPREAKVQWKVDNALQSGNSQESVTEQDSKDSTYSLSSTLTLSKADYEKHKVYACEVTHQGLSSPVTKSFNRGEC chain 2: EVQLVESGGGLVQPGGSLRLSCAASGFTFSSYAMSWVRQAPGKGLEWVASISSGDTTYYPDSVKGRFTISRDNAKNSLYLQMNSLRAEDTAVYYCARNEGYYFGLTLWGQGTLVTVSSASTKGPSVFPLAPSSKSTSGGTAALGCLVKDYFPEPVTVSWNSGALTSGVHTFPAVLQSSGLYSLSSVVTVPSSSLGTQTYICNVNHKPSNTKVDKKVEPKSC | 23.2 | 10 | 32.1 | 13.6 | 11.7 | 11.7 | 0.866 | 0.612 | 10 | 0.477 | 2.96 | 10 | 50.5 | 52.8 | 16.1 | 11.7 | IL-4 Induced CD23 Expression, potency of cytokine neutralization (recombinant human IL-4 [1]): 13 pM; IL-33 WT Activation of SEAP Reporter Cells, potency of cytokine neutralization (recombinant human IL-33 [2]): 13 pM; IL-13 Induced CD23 Expression, potency of cytokine neutralization (recombinant human IL-13 [3]): 9.35 pM; IC50 (mean), HEK-Blue IL-33 SEAP (recombinant human IL-33 [14]): 13.4 pM; IC50 (mean), IFNg Whole Blood (IL-12 plus IL-33 mm2-Cys) (IL-33 mm2): 12.5 pM |
| IL413TSLP-1024 (other, Trispecific Tri-Fab-Fc, dual cell, RR-EE, LS; Chains in order: SFab HC(3), DFab LC(1)-HC(2), SFab LC(3), DFab LC(2), modified Fd(1)) heavy: not shown chain 1: DIQMTQSPSSLSASVGDRVTITCKASESVDHFGWSLVHWYQQKPGKAPKLLIYRASNLESGVPSRFSGSGSGTDFTLTISSLQPEDFATYYCQQSNEDPWTFGGGTKVEIKRTVAAPSVFIFPPSDEQLKSGTASVVCLLNNFYPREAKVQWKVDNALQSGNSQESVTEQDSKDSTYSLSSTLTLSKADYEKHKVYACEVTHQGLSSPVTKSFNRGECGGGGSEVTLRESGPALVKPTQTLTLTCTFSGFSLSNFGEGLSWIRQPPGKGLEWLAHIYWDDDKRYNPSLKSRLTISKDTSRNQVVLTMTNMDPVDTATYYCARRETVFYWYFDVWGQGTTVTVSSASTKGPSVFPLAPSSKSTSGGTAALGCLVKDYFPEPVTVSWNSGALTSGVHTFPAVLQSSGLYSLSSVVTVPSSSLGTQTYICNVNHKPSNTKVDKKVEPKSCEKTHTCPPCPAPEAAGAPSVFLFPPKPKDTLMISRTPEVTCVVVDVSHEDPEVKFNWYVDGVEVHNAKTKPREEQYNSTYRVVSVLTVLHQDWLNGKEYKCKVSNKALPAPIEKTISKAKGQPREPQVYTLPPSREEMTKNQVSLTCEVKGFYPSDIAVEWESNGQPENNYKTTPPVLDSDGSFFLYSKLTVDKSRWQQGNVFSCSVLHEALHSHYTQKSLSLSPGK light 1: SYVLTQPPSVSVAPGQTARITCGGNNLGSKSVHWYQQKPGQAPVLVVYDDKDRPSWIPERFSGSNSGNTATLTISRGEAGDEADYYCQVWDSKSDHVVFGGGTKLTVLGQPKAAPSVTLFPPSSEELQANKATLVCLISDFYPGAVTVAWKADSSPVKAGVETTTPSKQSNNKYAASSYLSLTPEQWKSHRSYSCQVTHEGSTVEKTVAPTECS light 2: DIQMTQSPSSLSASVGDRVTITCRASQSVDEEGDSYMNWYQQKPGKAPKLLIYAASNLESGVPSRFSGSGSGTDFTLTISSLQPEDFATYYCQQSNKDPPTFGGGTKVEIKRTVAAPSVFIFPPSDEQLKSGTASVVCLLNNFYPREAKVQWKVDNALQSGNSQESVTEQDSKDSTYSLSSTLTLSKADYEKHKVYACEVTHQGLSSPVTKSFNRGEC chain 2: EVQLVESGGGLVQPGGSLRLSCAASGFTFSSYAMSWVRQAPGKGLEWVASISSGDTTYYPDSVKGRFTISRDNAKNSLYLQMNSLRAEDTAVYYCARNEGYYFGLTLWGQGTLVTVSSASTKGPSVFPLAPSSKSTSGGTAALGCLVKDYFPEPVTVSWNSGALTSGVHTFPAVLQSSGLYSLSSVVTVPSSSLGTQTYICNVNHKPSNTKVDKKVEPKSC | 23.6 | 8.27 | 16.4 | 10.1 | 13 | 13 | 0.581 | 0.266 | 8.27 | 0.323 | < 0.661 | 8.27 | 41.9 | 31.6 | 10.2 | 13 |  |
| IL33-0726 (antibody, human IgG1, kappa, V domains shown, also called IL13433-0726; IL33-0726 IgG) VH: EVQLVESGGGLVQPGGSLRLSCAASGFTFSSYWMYWVRQAPGKGLEWVAAITPNAGEDYYPESVKGRFTISRDNAKNSLYLQMNSLRAEDTAVYYCARGQYYYTKYSLGYWGQGTLVTVSS VL: DIQMTQSPSSLSASVGDRVTITCRASQPIHNHLDWYQQKPGKAPKLLIYFGKNLQEGVPSRFSGSGSGTDFTLTISSLQPEDFATYYCFQYKKGWSFGGGTKVEIKR |  |  |  |  |  |  |  |  |  |  |  |  |  |  |  |  | fold higher affinity relative to the IL33-0352 benchmark antibody (human IL-33): ~3 fold; fold higher affinity than IL33-0232 antibody (human IL-33): ~14 fold |
